According to publication PMC7380489 (NAR Cancer, 2020):

B1: human TRIM28 RBCC domain R184D (domain or fragment)
chain: CGVCRERLRPEREPRLLPCLHSACSACLGPAAPAAANSSGDGGAAGDGTVVDCPVCKQQCFSKDIVENYFMRDSGSKAATDAQDANQCCTSCEDNAPATSYCVECSEPLCETCVEAHQDVKYTKDHTVRSTGPAKSRDGERTVYCNVHKHEPLVLFCESCDTLTCRDCQLNAHKDHQYQFLEDAVRNQRKLLASLVKRLGDKHATLQKSTKEVRSSIRQVSDVQKRVQVDVKMAILQIMKELNKRGRVLVNDAQKVTEGQQERLERQHWTMTKIQKHQEHILRFASWALESDNNTALLLSKKLIYFQLHRAL

Key:
AUC = biological target: the molecule itself; test: AUC
[1] = biological target: B1; test: AUC

B1 was tested, and the “stoichiometry N” value (AUC) was 2.

B2: mouse ZFP568 residues 1-105 containing the first KRAB domain (1K) (domain or fragment)
chain: not shown
For B2, the “stoichiometry N” value [1] was 2 RBCC chains per 1K (2:1).
